From patent US20090074657A1 (IMMUNE PHARMACEUTICALS, published 2009)

B1: murine monoclonal anti-ferritin antibody AMB8LK (antibody, V domains shown)
VH: QVQLKESGPGLVAPSQSLSITCTVSGFSLSRYSVHWVRQPPGKGLEWLGTIWGGGSTDYNSVLKSRLSISKDNSKSQVLLKVNSLQTDDTAIYYCASGPYYYTMDYWGQGTSVTVSS
VL: QIVLTQSPAILSASLGEEITLTCSASSSVTFMHWYQQKSGTSPKLLIYTTSNLASGVPSRFSGSGSGTFYSLTISSVEAEDAADYYCHQWSSYPTFGSGTKLEIKR
notes: also called unconjugated AMB8LK; native antibody
B2: Bz-CHX-A″-DTPA-AMB8LK (antibody, V domains shown)
VH: B1 VH
VL: B1 VL
modifications: about 3 Bz-CHX-A″-DTPA chelates per antibody (pSCN-Bz-CHX-A″-DTPA conjugation; sites not stated); 111In or 90Y in the radioimmunoassays
notes: also called CHX-DTPA-AMB8LK; CHX-DTPA
B3: Bz-DTPA-AMB8LK (antibody, V domains shown)
VH: B1 VH
VL: B1 VL
modifications: about 3 Bz-DTPA chelates per antibody (pSCN-Bz-DTPA conjugation; sites not stated); 111In or 90Y in the radioimmunoassays
notes: also called DTPA conjugate; 111In-DTPA-AMB8LK
B4: Bz-DOTA-AMB8LK (antibody, V domains shown)
VH: B1 VH
VL: B1 VL
modifications: about 3.2 Bz-DOTA chelates per antibody (pSCN-Bz-DOTA conjugation; sites not stated); 111In or 90Y in the radioimmunoassays
notes: also called DOTA-conjugate; 111In-DOTA-AMB8LK

What was measured:
human ferritin = human ferritin (human, UniProt P02794 2-183; P02792 2-175, limits assumed); assay: method not stated
Sequence of human ferritin (P02794 2-183 limits assumed, chain 1 of 2): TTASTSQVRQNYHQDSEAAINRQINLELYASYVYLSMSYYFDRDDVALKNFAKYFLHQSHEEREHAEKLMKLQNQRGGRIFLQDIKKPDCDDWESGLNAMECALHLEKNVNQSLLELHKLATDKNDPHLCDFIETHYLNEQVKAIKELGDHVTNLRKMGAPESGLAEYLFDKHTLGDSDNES
Sequence of human ferritin (P02792 2-175 limits assumed, chain 2 of 2): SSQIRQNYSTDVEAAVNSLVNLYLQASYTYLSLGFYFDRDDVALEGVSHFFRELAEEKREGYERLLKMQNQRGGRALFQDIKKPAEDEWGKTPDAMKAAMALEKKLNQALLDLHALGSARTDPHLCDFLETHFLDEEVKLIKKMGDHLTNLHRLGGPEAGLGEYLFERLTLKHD

[1] = biological target: T1, human liver ferritin (Calbiochem) (human, UniProt P02794 2-183; P02792 2-175); assay: solid-phase radioimmunoassay, ferritin immobilised at 5 µg/ml on tubes, 90Y-labelled conjugate
T1 construct: Natural ferritin is a multimer of acidic (H) and basic (L) subunits; Adsorbed on plates or tubes in the assays; also called pure ferritin
T1 sequence (P02794 2-183 limits assumed, chain 1 of 2): as the sequence (P02794 2-183 limits assumed, chain 1 of 2) above
T1 sequence (P02792 2-175 limits assumed, chain 2 of 2): as the sequence (P02792 2-175 limits assumed, chain 2 of 2) above
Method: (§1) A solid-phase radioimmunoassay was performed using ¹¹¹In- and ⁹⁰y-labelled antibodies. Maxisorp tunes (Nunc) were incubated overnight at 4° C. with 1.5 to 10 μg/ml ferritin in PBS. After washing, they were blocked by PBS-0.5% BSA for 2 hours at room temperature. 6.25×10³, 12.5×10³ and 25×10³CPM (200 μl) of the antibodies were added in the coated tubes. The activity in each tube was counted in the gamma counter, then the tubes were washed three times with PBS-0.4% Tween-20 and the remaining activity counted. The difference between activities with and without the radiolabelled-antibody solutions indicated the percentage of bound-antibody. For evaluation of non specific binding to ferritin, a 100-fold excess of unconjugated antibody was added to the most concentrated radiolabelled-antibody solution. Non specific binding of the antibody was assessed on uncoated tubes. […] These binding percentages were calculated taking into account small differences in the labelling efficiencies of the three compounds on the day of the experiment.
(§2) ^aFerritin was immobilised at 5 μg/ml on tubes, then the indium or yttrium conjugated antibodies were incubated at three dilutions ([…]) Results are expressed as the mean of the percentage of bound antibody after washing the tubes. Non specific binding of the antibodies were less than 2%. ^bFive serial dilutions of fixed and permeabilized CAPAN-1 cells were incubated with the three radiolabelled compounds. After washing, the activity bound to the cells was counted in a gamma counter. Results were analysed using the GraphPad software; linear regression analysis of (Total CPM/Bound CPM) = f(cells dilution) were very accurate with r² > 0.99 for all three conjugates.

[2] = biological target: T1, human liver ferritin (Calbiochem); assay: solid-phase radioimmunoassay, ferritin immobilised at 5 µg/ml on tubes, 111In-labelled conjugate
Method: as §1, §2

[3] = biological target: T2, ferritin in fixed and permeabilized CAPAN-1 cells (human, UniProt P02794 1-183; P02792 2-175); assay: Lindmo assay on fixed and permeabilized CAPAN-1 cells, 111In-labelled conjugate
T2 construct: whole, on cells; Endogenous ferritin, over-expressed by CAPAN-1 cells; The cells were fixed and permeabilized, so the ferritin reached is inside the cells; also called cells expressing ferritin
T2 sequence (P02794 whole entry, chain 1 of 2): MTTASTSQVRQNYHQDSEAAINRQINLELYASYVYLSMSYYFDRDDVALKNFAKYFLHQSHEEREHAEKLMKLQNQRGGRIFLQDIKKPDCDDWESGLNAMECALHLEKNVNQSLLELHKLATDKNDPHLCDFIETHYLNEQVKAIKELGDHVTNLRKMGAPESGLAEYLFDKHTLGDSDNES
T2 sequence (P02792 2-175, chain 2 of 2): as the sequence (P02792 2-175 limits assumed, chain 2 of 2) above
Method: Immunoreactivity of the immunoconjugates was assessed on cells expressing ferritin using the method described by Lindmo et al Determination of the immunoreactive fraction of radiolabeled monoclonal antibodies by linear extrapolation to binding at infinite antigen excess. J Immunol Methods 1984; 72 (1):77-89.
The CAPAN-1 cells are a relevant model for human pancreatic cancer (Kyriazis et al Human pancreatic adenocarcinoma line Capan-1 in tissue culture and the nude mouse:morphologic, biologic, and biochemical characteristics. Am J Pathol 1982; 106(2):250-60.). This cell line was established from a liver metastasis of a human pancreatic ductal adenocarcinoma, is tumorigenic and metastatic in nude mice and over-expresses ferritin. […] CAPAN-1 cells were grown in RPMI, 10% foetal calf serum and 2 mM L-glutamine. Cells were harvested at 70-85% confluence using trypsin, washed and resuspended in PBS-0.5% BSA. They were then fixed and permeabilized using the Intrastain kit (rako) following the manufacturer's instructions. Cells were diluted in PBS-0.5% BSA at concentrations ranging from 1.25×10⁵ to 12×10⁶ cells/ml and 500 μl of these suspensions were incubated with a fixed amount of ¹¹¹In-labeled-Ab (250 μl, 50 ng/ml, approximately 100,000CPM) for 2 hours at room temperature under agitation. Suspensions were centrifuged at 5,000×rpm for 5 minutes, the cells were washed with PBS-BSA and the activity in the pellets was counted. Nonspecific binding was determined by co-incubation of the radiolabelled-antibody with a 1.000-fold excess of cold antibody. The total radioactive counts added to each tube were divided by the cell-bound counts after subtraction of the non-specifically bound counts. These values were plotted against the reciprocal of cell dilution. After linear regression analysis, the immunoreactive fraction was obtained from the reciprocal of the intercept on the y-axis.

| Binder | Kd (human ferritin) [nM] | immunoreactivity (percentage of bound antibody) [1] [%] | immunoreactivity (percentage of bound antibody) [2] [%] | immunoreactivity (immunoreactive fraction) [3] [%] |
| --- | --- | --- | --- | --- |
| B1 | 5.1 | – | – | – |
| B2 | – | 98.9 | 74.8 | 43 |
| B3 | – | 100 | 87 | 52 |
| B4 | – | 73.2 | 76.8 | 24 |
